Measured values reported in US20250163122A1, “COMPOSITIONS AND METHODS FOR TREATING AIRWAY MUCUS DYSFUNCTION” (BOARD OF REGENTS, THE UNIVERSITY OF TEXAS SYSTEM, priority 2022, published 2025).
Bridges are numbered along the chain shown (N, C = ends). Where no end group is shown, it is not given here. [ ]: non-standard residue; d: D form. S5 = C=CCCC[C@](C)(N)C(=O)O

B1: SP9-Cy3 (peptide)
peptide: Ac-EE[S5]KDA[S5]IR[S5]LVM[S5]DEQ
modifications: staple 10-14, 3-7; not fully specified (C-terminus); printed as Ac-EE(S5)KDA(S5)IR(S5)LVM(S5)DEQ-(C/Cy3Mal)-amide; also: Cy3 maleimide on C-terminal Cys
notes: Synthetic hydrocarbon-stapled peptide; This Cy3-labeled form was used in the bulk fluorescence anisotropy assay, diluted to 10 nM; also called Cy3 labeled SP9; Cy3-labeled SP9
B2: P0-Cy3 (peptide)
peptide: EESKDAGIRTLVMLDEQGEQLD-{C(Cy3 maleimide)-NH2}
notes: Labeled control peptide of the anisotropy assay; also called PO-Cy3; Cy3-labeled P0

How the values were obtained:
[1] = target: T1, Syt2 C2B (Rattus norvegicus (Rat), UniProt P29101 272-422); assay: bulk fluorescence anisotropy, Cy3-labeled peptide with varying concentrations of unlabeled C2B; Hill fit with coefficient constrained to one
T1 construct: also called C2B domain of Syt2

[2] = target: T2, Syt1 C2B (Homo sapiens (Human), UniProt P21579 272-422); assay: as above
T2 construct: Expressed as a GST fusion in E. coli and the tag cleaved with PreScission protease; also called C2B domain of Syt1; Syt1C2B, aa 271-421

[3] = target: T1, Syt2 C2B; assay: bulk fluorescence anisotropy, Cy3-labeled peptide with varying concentrations of C2B
[4] = target: T2, Syt1 C2B; assay: as above

T2 sequence (P21579 272-422 limits assumed): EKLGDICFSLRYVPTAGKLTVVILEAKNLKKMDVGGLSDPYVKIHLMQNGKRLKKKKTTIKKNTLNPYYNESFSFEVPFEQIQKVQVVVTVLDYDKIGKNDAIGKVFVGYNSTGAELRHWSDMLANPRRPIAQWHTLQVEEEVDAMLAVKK
T1 sequence (P29101 272-422 limits assumed): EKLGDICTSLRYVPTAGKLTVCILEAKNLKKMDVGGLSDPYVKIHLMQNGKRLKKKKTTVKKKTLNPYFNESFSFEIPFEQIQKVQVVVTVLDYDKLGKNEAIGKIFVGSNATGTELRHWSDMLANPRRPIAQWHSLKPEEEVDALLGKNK

Binder	Kd [1]	Kd [2]	binding result [3]	binding result [4]
B1	35 µM	24 µM		
B2			no binding	no binding
